Target: cytochrome f (Cyt f) of spinach Cyt b6f (spinach (Spinacia oleracea), UniProt P16013 36-320)
Assay: cryo-EM structure

cytochrome f (Cyt f) of spinach Cyt b6f, sequence (P16013 36-320): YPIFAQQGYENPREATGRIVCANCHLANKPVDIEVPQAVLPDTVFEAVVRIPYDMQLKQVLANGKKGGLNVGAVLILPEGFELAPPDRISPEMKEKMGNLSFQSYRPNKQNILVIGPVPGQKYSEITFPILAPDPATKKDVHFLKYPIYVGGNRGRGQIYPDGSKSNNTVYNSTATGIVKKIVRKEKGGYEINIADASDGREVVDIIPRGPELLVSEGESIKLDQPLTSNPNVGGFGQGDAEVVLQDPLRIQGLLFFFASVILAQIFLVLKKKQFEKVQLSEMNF

B1: plastocyanin (PC) from spinach (natural protein)
chain: VEVLLGGGDGSLAFLPGDFSVASGEEIVFKNNAGFPHNVVFDEDEIPSGVDAAKISMSEEDLLNAPGETYKVTLTEKGTYKFYCSPHQGAGMVGKVTVN
Does B1 bind?
Result: binds

Reference: article PMC9839326 (Science Advances, 2023)
